The numbers were not newly measured in paper PMC10746204, which cites them from elsewhere.

In this data set the target is IFNAR2 (Homo sapiens) (UniProt P48551).
Sequence of UniProt P48551 (P48551 27-243): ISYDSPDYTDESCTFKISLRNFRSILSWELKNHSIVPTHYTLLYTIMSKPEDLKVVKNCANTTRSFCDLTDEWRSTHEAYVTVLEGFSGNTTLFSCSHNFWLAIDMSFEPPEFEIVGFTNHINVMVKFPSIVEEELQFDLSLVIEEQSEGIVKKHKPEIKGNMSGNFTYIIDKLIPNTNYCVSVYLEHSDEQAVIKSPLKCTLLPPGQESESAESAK

Consider IFNα14 (from UniProt P01570), for which the Kd was 0.7 nM.

Broadly, the Kd is a measure of binding affinity in units of concentration.
